Source: article PMC12751051, “Penaeus monodon fibrinogen-related lectin interacts with lipopolysaccharide and β-1,3-glucan binding protein to activate the innate immune system” (Biochemical Journal, 2025)

How the values were obtained:
rPmFREP CRD = target: T1, rPmFREP CRD (Penaeus monodon, UniProt A0A068LKH5); assay: GlcNAc-resin affinity column, elution with free GlcNAc, anti-His Western blot; assay type: binding; details: 8 ml GlcNAc resin; eluted with 100 mM GlcNAc; proteins loaded at 5 µM each; immobilised ligand
T1 construct: XEEL signal peptide, His6 tag; insect cells; lacks oligomeric structure

[1] = target: recombinant Penaeus monodon lipopolysaccharide and β-1,3-glucan binding protein (Penaeus monodon) (UniProt H9MER4); assay: BLI; BLItz; rPmLGBP immobilised on Octet SA biosensor activated with EDC and NHS; analytes in 20 mM HEPES pH 7.5, 150 mM NaCl, 10 mM CaCl2; association 4 minutes, dissociation 4 minutes; curves globally fitted
[2] = target: Penaeus monodon lipopolysaccharide and β-1,3-glucan binding protein (endogenous, hemolymph) (Penaeus monodon (endogenous in shrimp hemolymph))
[3] = target: T2, recombinant Penaeus monodon lipopolysaccharide and β-1,3-glucan binding protein (Penaeus monodon, UniProt H9MER4 1-366); assay: curdlan binding assay; rPmFREP and rPmLGBP, 0.1 µM each, incubated with 1 mg curdlan in 20 mM HEPES pH 7.5, 150 mM NaCl, 10 mM CaCl2, 4°C, 16 hours; curdlan collected by centrifugation, washed three times, eluted with 2% SDS; anti-His Western blot, densitometry of rPmFREP; details: both partners purified
T2 construct: The construct holds the protein's own N-terminus (signal peptide); also called rPmLGBP; PmLGBP; source: insect cell expression system (Bac-to-Bac baculovirus), purified (Ni-NTA); not shown: His6, C-terminal, kept
T2 sequence (looked up): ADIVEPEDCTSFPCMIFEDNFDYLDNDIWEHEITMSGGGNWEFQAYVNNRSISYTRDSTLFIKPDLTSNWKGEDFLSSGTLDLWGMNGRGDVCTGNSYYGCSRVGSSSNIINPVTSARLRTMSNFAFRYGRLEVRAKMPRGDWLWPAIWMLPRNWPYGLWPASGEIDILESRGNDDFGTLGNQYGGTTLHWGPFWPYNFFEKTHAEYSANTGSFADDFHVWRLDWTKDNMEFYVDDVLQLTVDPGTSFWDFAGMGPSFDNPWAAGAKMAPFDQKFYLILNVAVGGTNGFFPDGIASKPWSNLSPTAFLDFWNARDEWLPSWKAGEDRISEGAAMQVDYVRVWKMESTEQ

[4] = target: T2, recombinant Penaeus monodon …; assay: BLI; BLItz; rPmLGBP immobilised on Octet SA biosensor activated with EDC and NHS; analytes in 20 mM HEPES pH 7.5, 150 mM NaCl, 10 mM CaCl2; association 4 minutes, dissociation 4 minutes; curves globally fitted; details: both partners purified

CC(=O)N[C@H]1C(O)O[C@H](CO)[C@@H](O)[C@@H]1O (stereo partly drawn) [N-acetylglucosamine]
GlcNAc-resin affinity column, elution with free GlcNAc, anti-His Western blot (rPmFREP CRD): rPmFREP and rPmFREP CRD were bound to the GlcNAc column

rPmFREP CC-MBP (domain or fragment)
Kd [1]: 220 nM
PO activity in hemolymph of shrimp injected with the recombinant protein (1 nmol/g shrimp) and then infected with VP AHPND, against rMBP-injected control shrimp [2]: 3 fold

B1: recombinant Penaeus monodon fibrinogen-related protein (natural protein, UniProt A0A068LKH5 1-312, looked up)
chain: TTERTDTAEPQQPGGCHALPSLLQSAGSSLTCIAASLINCQANENDQLSIAQDLRDTMSEVRRAIVDAERRRRRPRHCRDLQLDGDSESGVRRVFPFRSSPDAAATVYCDQETDGGGWTVFQRRLKLPVREDFYRTWVEYELGFGHMDGGEFWLGLDLVHRLTSTGLQEMRIDLTDYEDNAKWAKYGVFHLGDASTKYRLKVGRYNGTAGDGFGSGRHDGHPFTTHDNDNDGDGANCAARYRGAWWYDKCHISNLNGFPYEGDHESYADGIEWQPWRGYHYSLKTTTMMIRPAF
notes: also called rPmFREP; PmFREP; source: insect cell expression system (baculovirus), purified (Ni-NTA)
fold more rPmFREP in the curdlan elution fraction with rPmLGBP than without it [3]: ~3.1 fold
Kd [4]: 340 nM
PO activity in hemolymph of shrimp injected with the recombinant protein (1 nmol/g shrimp) and then infected with VP AHPND, against rMBP-injected control shrimp [2]: 3.4 fold
